The values below come from patent US20250027114.

For data set [1], the system named is T1, E2-12-ABE8e (Neisseria meningitidis).
T1 sequence: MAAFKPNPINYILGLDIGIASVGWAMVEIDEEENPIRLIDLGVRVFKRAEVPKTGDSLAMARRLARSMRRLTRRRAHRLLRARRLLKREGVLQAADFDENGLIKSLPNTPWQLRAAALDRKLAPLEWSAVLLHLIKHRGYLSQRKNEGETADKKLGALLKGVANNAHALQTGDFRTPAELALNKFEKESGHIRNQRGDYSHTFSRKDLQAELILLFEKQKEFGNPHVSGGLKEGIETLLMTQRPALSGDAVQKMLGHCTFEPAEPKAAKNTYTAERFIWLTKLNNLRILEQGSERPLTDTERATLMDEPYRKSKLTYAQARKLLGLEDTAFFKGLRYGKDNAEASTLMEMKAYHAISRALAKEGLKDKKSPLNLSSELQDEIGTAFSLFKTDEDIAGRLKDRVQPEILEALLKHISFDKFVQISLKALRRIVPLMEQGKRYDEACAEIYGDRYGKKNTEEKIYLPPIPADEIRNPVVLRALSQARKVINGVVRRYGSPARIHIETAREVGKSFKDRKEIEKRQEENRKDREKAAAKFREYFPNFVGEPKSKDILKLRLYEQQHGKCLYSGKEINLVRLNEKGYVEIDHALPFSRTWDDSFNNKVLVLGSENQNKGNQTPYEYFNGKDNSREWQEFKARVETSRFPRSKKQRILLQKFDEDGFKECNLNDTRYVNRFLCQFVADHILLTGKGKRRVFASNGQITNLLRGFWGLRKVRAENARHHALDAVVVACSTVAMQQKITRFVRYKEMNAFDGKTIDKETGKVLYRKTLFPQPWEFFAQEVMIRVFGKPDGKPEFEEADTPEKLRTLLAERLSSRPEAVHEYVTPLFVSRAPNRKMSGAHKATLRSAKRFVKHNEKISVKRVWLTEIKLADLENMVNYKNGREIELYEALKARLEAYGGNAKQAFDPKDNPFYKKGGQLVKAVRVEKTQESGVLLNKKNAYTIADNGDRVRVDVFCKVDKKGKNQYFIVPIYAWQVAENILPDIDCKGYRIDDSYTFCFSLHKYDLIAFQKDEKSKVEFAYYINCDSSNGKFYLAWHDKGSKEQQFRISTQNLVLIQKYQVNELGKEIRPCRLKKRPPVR
The data set can be described thus: cell_activity. Particulars: PAM N4YNC average, E. coli ABE-PPA; 33% on N4YND.

For data set [2], the system named is T2, Nme2Cas9 (Nme2-ABE8e) (Neisseria meningitidis).
T2 sequence: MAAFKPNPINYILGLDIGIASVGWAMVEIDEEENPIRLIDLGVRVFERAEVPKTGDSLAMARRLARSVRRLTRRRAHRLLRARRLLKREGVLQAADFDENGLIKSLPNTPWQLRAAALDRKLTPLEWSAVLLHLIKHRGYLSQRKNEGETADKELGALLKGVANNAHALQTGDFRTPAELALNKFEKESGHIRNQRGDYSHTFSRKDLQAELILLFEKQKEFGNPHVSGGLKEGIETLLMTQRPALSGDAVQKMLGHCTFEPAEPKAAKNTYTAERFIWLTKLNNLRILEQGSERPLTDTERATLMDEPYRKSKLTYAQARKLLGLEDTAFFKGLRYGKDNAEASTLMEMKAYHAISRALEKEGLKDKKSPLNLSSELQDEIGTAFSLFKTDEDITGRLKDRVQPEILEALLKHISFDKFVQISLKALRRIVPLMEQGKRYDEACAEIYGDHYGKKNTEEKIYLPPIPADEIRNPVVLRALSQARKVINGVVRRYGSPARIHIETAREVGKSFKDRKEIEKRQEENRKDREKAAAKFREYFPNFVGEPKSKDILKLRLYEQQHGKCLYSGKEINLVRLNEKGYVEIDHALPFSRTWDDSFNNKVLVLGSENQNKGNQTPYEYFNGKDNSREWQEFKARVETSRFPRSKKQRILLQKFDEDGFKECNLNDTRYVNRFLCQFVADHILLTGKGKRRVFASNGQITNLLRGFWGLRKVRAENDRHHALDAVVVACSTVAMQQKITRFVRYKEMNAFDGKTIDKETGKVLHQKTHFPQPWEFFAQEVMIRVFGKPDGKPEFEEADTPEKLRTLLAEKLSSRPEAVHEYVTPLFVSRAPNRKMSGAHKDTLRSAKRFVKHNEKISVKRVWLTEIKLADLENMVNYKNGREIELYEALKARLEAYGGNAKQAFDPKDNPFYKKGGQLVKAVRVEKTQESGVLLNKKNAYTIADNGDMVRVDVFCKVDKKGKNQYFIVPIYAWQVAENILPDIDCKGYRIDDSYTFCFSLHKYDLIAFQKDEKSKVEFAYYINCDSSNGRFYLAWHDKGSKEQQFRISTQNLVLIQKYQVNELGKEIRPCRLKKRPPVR
Briefly: cell_activity. Particulars: PAM N4YNC average, E. coli ABE-PPA; 14% on N4YND.

For the sequence “AUGGCCCAGACUGAGCACGUGAGGUUGUAGCUCCCUUUCUCAUUUCGGAAACGAAAUGAGAACCGUUGCUACAAUAAGGCCGUCUGAAAAGAUGUGCCGCAACGCUCUGCCCCUUAAAGCUUCUGCUUUAAGGGGCAUCGUUUA / ATGGCCCAGACTGAGCACGTGA / TCACGTGCTCAGTCTGGGCCAT [ABE-PPA sgRNA ; ABE-PPA protospacer library target]”, the activity (% A-to-G conversion) stood at 58 in data set [1] and 18 in data set [2].
